“And” between values parts separate entries of the source, which are not always exact repeats. Identical values can stand only once.
Columns and labels:
Conditions in all cases: remark: other sources report otherwise
[1] = molecular target: T1, DAP12, endogenous in macrophage-like differentiated THP-1 cells (human (endogenous in THP-1)), O43914; test: non-reducing SDS-PAGE and western immunoblotting; membranes of differentiated THP-1 cells (wt and TREM2 ko; with or without MG132, lactacystin or chloroquine for 4 h); SDS sample buffer without DTT, 5 min 95 °C
[2] = molecular target: T1, DAP12, endogenous in macrophage-like …; test: as above; remark: listed apart in the source
[3] = molecular target: T2, DNAX-activating protein of 12 kDa (DAP12) wt, overexpressed in HEK293 cells, O43914; test: SDS-PAGE and western immunoblotting; HEK293 cells transiently expressing DAP12 wt or DAP12 D50A with or without TREM2 (blots of Fig. 5A); SDS resistant oligomers
[4] = molecular target: T2, DNAX-activating protein of 12 kDa …; test: SDS-PAGE and western immunoblotting; membranes of HEK293 Flp-In cells stably overexpressing DAP12 alone or with TREM2 wt or TREM2 K186N; with or without proteasome inhibitors (Suppl. Figure S3)

B1: DAP12, endogenous in macrophage-like differentiated THP-1 cells, O43914 22-113 (natural protein)
chain: LRPVQAQAQSDCSCSTVSPGVLAGIVMGDLVLTVLIALAVYFLGRLVPRGRGAAEAATRKQRITETESPYQELQGQRSDVYSDLNTQRPYYK
- stoichiometry N [1]: 3
- stoichiometry N [2]: 2

B2: DNAX-activating protein of 12 kDa (DAP12) wt, overexpressed in HEK293 cells, O43914 22-113 (natural protein)
chain: LRPVQAQAQSDCSCSTVSPGVLAGIVMGDLVLTVLIALAVYFLGRLVPRGRGAAEAATRKQRITETESPYQELQGQRSDVYSDLNTQRPYYK
- stoichiometry N [3]: 3 and 4
- stoichiometry N [4]: 2 and 3

Source: publication PMC11335228
